B1: anti-VEGF antibody VNERK with heavy chain FR1 subgroup III sequence (plasmid pxVG11VNERK) (antibody, V domains shown)
VH: EVQLVESGGGLVQPGGSLRLSCAASGYTFTNYGINWVRQAPGKGLEWVGWINTYTGEPTYAADFKRRFTFSLDTSKSTAYLQMNSLRAEDTAVYYCAKYPHYYVNERKSHWYFDVWGQGTLVTVSS
VL: DIQLTQSPSSLSASVGDRVTITCSASQDISNYLNWYQQKPGKAPKVLIYFTSSLHSGVPSRFSGSGSGTDFTLTISSLQPEDFATYYCQQYSTVPWTFGQGTKVEIKR
notes: Full-length humanized antibody made in E. coli (aglycosylated); also called anti-VEGF (VNERK); xVEGF (VNERK)
B2: anti-VEGF antibody VNERK with heavy chain FR1 subgroup I consensus sequence (plasmid pVKFR1-2) (antibody, V domains shown)
VH: QVQLVQSGAEVKKPGASVKVSCKASGYTFTNYGINWVRQAPGKGLEWVGWINTYTGEPTYAADFKRRFTFSLDTSKSTAYLQMNSLRAEDTAVYYCAKYPHYYVNERKSHWYFDVWGQGTLVTVSS
VL: B1 VL
notes: Full-length antibody made in E. coli; differs from VNERK (pxVG11VNERK) by 12 substitutions in heavy chain FR1 (subgroup III to subgroup I); also called pVKFR1-2 (FR1 = SGI); VNERK HCFR1=SGI

Key:
[1] = molecular target: T1, VEGF (UniProt P15692-4 27-191, limits assumed); assay: BIAcore SPR, VEGF coupled to the chip, full-length antibody injected; Kd = koff/kon; original FR1 subgroup III sequence (pxVG11VNERK)
T1 construct: Coupled covalently to the biosensor chip; also called VEGF antigen; VEGF (109)
T1 sequence (P15692 other isoform, or with tags, fused parts or gaps limits assumed): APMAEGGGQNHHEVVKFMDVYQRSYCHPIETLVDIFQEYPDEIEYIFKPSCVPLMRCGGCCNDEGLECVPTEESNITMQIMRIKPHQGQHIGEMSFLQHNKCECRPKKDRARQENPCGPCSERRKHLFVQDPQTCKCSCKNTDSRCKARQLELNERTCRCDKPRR
Description: (§1) The VEGF-binding affinities of full length antibodies produced in bacterial cells were calculated from association and disassociation rate constants measured using a BIAcore™-2000 surface plasmon resonance system (BIAcore, Inc., Piscataway, N.J.) as described in Chen et al, (1999) J. Mol. Bio. 293:865-881). A biosensor chip was activated for covalent coupling of VEGF using N-ethyl-N′-(3-dimethylaminopropyl)-carbo-dimide hydrochloride (EDC) and N-hydroxysuccinimid (NHS) according to the supplier's (BIAcore, Inc., Piscataway, N.J.) instructions. VEGF (109) or VEGF (165) was buffer-exchanged into 20 mM sodium acetate, pH 4.8 and diluted to approximately […] to achieve approximately 700-1400 response units (RU) of coupled protein. A solution of 1 M ethanolamine was injected as a blocking agent.
(§2) For kinetics measurements, twofold serial dilutions of full length antibodies were injected in PBS/Tween buffer (0.05% Tween-20 in phosphate-buffered saline) at 25° C. or 37° C. at a flow rate of 10 μl/minute. Equilibrium dissociation constants, Kd values from SPR measurements were calculated as koff/kₒₙ.
(§3) To determine if the FR1 subgroup substitutions had any effect on the binding affinity for VEGF antigen, an affinity assay was performed using the expressed antibodies obtained from bacterial cells.

[2] = molecular target: T1, VEGF; assay: BIAcore SPR, VEGF coupled to the chip, full-length antibody injected; Kd = koff/kon; subgroup I sequence substitution (pVKFR1-2)
Description: as §1, §2, §3

| Binder | Kd [1] [nM] | Kd [2] [nM] |
| --- | --- | --- |
| B1 | 0.12 |  |
| B2 |  | 0.19 |

— patent US20040229310A1 (Genentech, published 2004)
